The text below walks through data of patent US20240374671A1 (ACCELERON PHARMA, published 2024).

For orientation: Kd means the concentration at which binding is half-saturated. Usually koff stands for the first-order rate constant of dissociation. What is called kon is the rate constant with which the complex forms.

The target in experiment [1] is T1, dimeric hActRIIB (human, UniProt Q13705 25-130).
T1 construct: also called ActRIIB DIMER; ActRIIB dimer
T1 sequence: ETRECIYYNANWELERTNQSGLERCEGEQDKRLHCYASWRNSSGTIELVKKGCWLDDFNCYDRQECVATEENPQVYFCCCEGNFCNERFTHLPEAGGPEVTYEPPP
The experiment in a line: SPR (Biacore), 37 C, mAb captured on anti-hFc chip, receptor injected, 1:1 fit. On the procedure: (§1) Kinetic characterization of A01 antibody lineage (A01 (naïve parent), B01, C01, D01, E01 and F01) binding to monomeric and dimeric hActRIIB and hActRIIA was performed using standard BIACORE®-based analysis at 37° C. In brief, antibodies were captured on anti-hFcIgG Biacore chips and different concentrations of dimeric and monomeric ActRIIB or ActRIIA were injected in duplicates over the captured antibody and control surface. To obtain kinetic rate constants the data were double referenced and fit to a 1:1 interaction model using BiaEvaluation software (GE Healthcare). The equilibrium binding constant KD was determined by the ratio of binding rate constants kd/kₐ
In general terms: SPR reads the build-up and loss of mass on a sensor chip optically.

Experiment [2] addresses T2, monomeric hActRIIB (human, UniProt Q13705 25-130, limits assumed).
T2 construct: also called ActRIIB MONOMER; ActRIIB monomer
T2 sequence: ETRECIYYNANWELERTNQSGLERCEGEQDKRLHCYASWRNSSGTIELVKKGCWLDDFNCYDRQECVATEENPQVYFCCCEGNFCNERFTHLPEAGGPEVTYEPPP
Described as above. On the procedure:
as §1

The target in experiment [3] is T3, monomeric hActRIIA (human, UniProt P27037 21-138, limits assumed).
T3 construct: also called ActRIIA MONOMER; ActRIIA monomer
The experiment in a line: SPR (BIACORE), 37 C, series of concentrations (not printed on the sheet). The procedure: (§2) FIGS. 1A-1N depict kinetic characterization of A01 lineage antibodies binding to hActRIIB and hActRIIA as determined by BIACORE®-based analysis at 37° C. Monomeric or dimeric hActRIIB or hActRIIA was […]. FIGS. 1A-1D depict characterization of antibody A01 (parent) binding to ActRIIB monomer (FIG. 1A), ActRIIB dimer (FIG. 1B), ActRIIA monomer (FIG. 1C), and ActRIIA dimer (FIG. 1D). FIGS. 1E and 1F depict characterization of antibody B01 binding to ActRIIB monomer (FIG. 1E) and ActRIIB dimer (FIG. 1F). FIGS. 1G-1H depict antibody C01 binding to ActRIIB monomer (FIG. 1G) and ActRIIB dimer (FIG. 1H). FIGS. 1I-1J depict antibody D01 binding to ActRIIB monomer (FIG. 1I) and ActRIIB dimer (FIG. 1J). FIGS. 1K-1L depict antibody E01 binding to ActRIIB monomer (FIG. 1K) and ActRIIB dimer (FIG. 1L). FIGS. 1M-1N depict antibody F01 binding to ActRIIB monomer (FIG. 1M) and ActRIIB dimer (FIG. 1N).
(§3) Kinetic characterization of A01 antibody lineage (A01 (naïve parent), B01, C01, D01, E01 and F01) binding to monomeric and dimeric hActRIIB and hActRIIA was performed using standard BIACORE®-based analysis at 37° C. […] The equilibrium binding constant KD was determined by the ratio of binding rate constants kd/kₐ

The target in experiment [4] is T4, dimeric hActRIIA (human, UniProt P27037 21-138).
T4 construct: also called ActRIIA DIMER; ActRIIA dimer
The experiment is described as above. On the procedure:
as §2, §3

Experiment [5] has as its target T3, monomeric hActRIIA. The experiment in a line: SPR (Biacore), 37 C, mAb captured on anti-hFc chip, receptor injected. The procedure: as §1
The target in experiment [6] is T4, dimeric hActRIIA. The description is as above. On the procedure: as §1
The target of experiment [7] is T3, monomeric hActRIIA. The experiment in a line: SPR (Biacore), 37 C. On the procedure:
(§4) Kinetic characterization of G02 antibody binding to monomeric and dimeric hActRIIB and hActRIIA was performed using standard BIACORE®-based analysis at 37° C. FIGS. 8A-8D show kinetic characterization of G02 antibody binding to monomeric and dimeric hActRIIB and hActRIIA (FIG. 8A-8D, respectively) as determined by BIACORE®-based analysis at 37° C.

In experiment [8] the target is T4, dimeric hActRIIA. The experiment in a line: SPR (Biacore), 37 C. The procedure:
as §4

Experiment [9] concerns the target T1, dimeric hActRIIB. The experiment in a line: SPR (BIACORE), 37 C, series of concentrations (not printed on the sheet). The procedure: as §4
In experiment [10] the target is T2, monomeric hActRIIB. The description is as above. On the procedure: as §4
The target of experiment [11] is T3, monomeric hActRIIA. Described as above. This is another data set of the same source.
Experiment [12] has as its target T1, dimeric hActRIIB. Briefly: SPR (Biacore), 37 C.
Experiment [13] deals with T2, monomeric hActRIIB. The experiment in a line: SPR (Biacore), 37 C.
Experiment [14] has as its target T4, dimeric hActRIIA. Briefly: SPR (BIACORE), 37 C, series of concentrations (not printed on the sheet). This is another data set of the same source.
For experiment [15], the target named is T3, monomeric hActRIIA. The experiment in a line: SPR (Biacore), 37 C. The source holds these as a separate data set.
Experiment [16] concerns the target T4, dimeric hActRIIA. Briefly: SPR (Biacore), 37 C. The source holds these as a separate data set.
Experiment [17] deals with T5, human ActRIIB ECD (peptide library) (human, UniProt Q13705 25-130).
T5 construct: also called AcRIIB
T5 sequence: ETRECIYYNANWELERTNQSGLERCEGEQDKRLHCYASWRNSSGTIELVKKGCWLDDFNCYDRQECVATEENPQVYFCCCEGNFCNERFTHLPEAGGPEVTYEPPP
Briefly: Pepscan peptide library ELISA (linear 15-mers and CLIPS). The procedure:
Mapping of the ActRIIB and ActRIIA ECD epitopes recognized by the antibodies was performed by Pepscan Presto BV using custom made peptide libraries. Sequences of ECDs of human ActRIIB and ActRIIA were converted into libraries of overlapping linear 15-mers and circularized 15-mer CLIPS using combinatorial matrix design. CLIPS (Chemical Linkage of Peptides onto Scaffolds) technology structurally fixes peptides into defined three-dimensional structures (single, double, triple, etc. loops) creating functional mimics of complex binding sites. Peptides were synthesized on solid support. Binding of antibodies to each of the synthesized peptides was tested by ELISA and binding affinities were quantified. Peptide constructs representing both parts of the discontinuous epitope in the correct conformation bind specific antibody with the highest affinity. […] Each peptide was given a score based on affinity.
In general terms: ELISA stands for enzyme-linked immunosorbent assay.

In experiment [18] the target is T3, monomeric hActRIIA. The experiment in a line: SPR (Biacore), 37 C. The source holds these as a separate data set.
The target in experiment [19] is T4, dimeric hActRIIA. The experiment in a line: SPR (Biacore), 37 C. This is another data set of the same source.
Experiment [20] addresses T1, dimeric hActRIIB. The experiment in a line: SPR (Biacore), 37 C. This is another data set of the same source.
Experiment [21] has as its target T2, monomeric hActRIIB. Briefly: SPR (Biacore), 37 C. This is another data set of the same source.

T4 sequence (P27037 21-138): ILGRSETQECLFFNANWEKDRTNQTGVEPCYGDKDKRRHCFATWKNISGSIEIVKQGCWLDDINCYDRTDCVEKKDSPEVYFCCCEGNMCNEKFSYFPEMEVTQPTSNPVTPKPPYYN
T3 sequence (P27037 21-138 limits assumed): as the sequence (P27037 21-138) above

B1: A01 (antibody, human IgG1, kappa, V domains shown)
VH: QLQLQESGPGLVKPSETLSLTCTVSGGSISSSSYAWGWIRQPPGKGLEWIGSIYYSGSTYYNPSLKSRVTISVDTSKNQFSLKLSSVTAADTAVYYCARDSGIGYSYASSHGYYYYMDVWGKGTTVTVSS
VL: EIVLTQSPATLSVSPGERATLSCRASQSVGSNLAWYQQKPGQAPRLLIYGASTRATGIPARFSGSGSGTEFTLTISSLQSEDFAVYYCQQYFHFPLTFGGGTKVEIKR
notes: Human IgG from yeast libraries; also called A01 Parent; A01 (naïve parent)
In experiment [1], B1 showed a Kd of 1.21 nM, a koff of 0.000128 s⁻¹ and a kon of 106000 M⁻¹ s⁻¹. In experiment [2], this molecule returned a Kd of 1150 nM, a koff of 0.198 s⁻¹ and a kon of 172000 M⁻¹ s⁻¹. For the same molecule, in experiment [3], the binding result is recorded as “no binding”. Moreover, the binding result in [4] was “no binding”.

B2: B01 (antibody, V domains shown)
VH: QVQLQESGPGLVKPSQTLSLTCTVSGGSILSGGYYWSWIRQHPGKGLEWIGGIYYSGKTYYNPSLKSRVTISVDTSKNQFSLKLSSVTAADTAVYYCARDSGIGYSYASSHGYYYYMDVWGKGTTVTVSS
VL: EIVLTQSPATLSVSPGERATLSCRASQSVGSNLAWYQQKPGQAPRLLIYGASTRATGIPARFSGSGSGTEFTLTISSLQSEDFAVYYCQQYFHFPLTFGGGTKVEIK
notes: Human IgG
Take B2: the binding result in experiment [5] is given as “no binding”. For the same molecule, the binding result in experiment [6] is listed as “no binding”. In experiment [1], this molecule had a dissociation constant (Kd) of 0.393 nM, an off-rate constant (koff) of 0.000246 s⁻¹ and a kon of 626000 M⁻¹ s⁻¹. In experiment [2], this molecule gave a Kd of 3.64 nM, a koff of 0.0034 s⁻¹ and an on-rate (kon) of 1.09e+06 M⁻¹ s⁻¹.

B3: G02 (antibody, human IgG1, kappa, V domains shown)
VH: QVQLQESGPGLVKPSQTLSLTCTVSGGSISSGSYYWSWIRQHPGKGLEWIGYIYYSGSTYYNPSLKSRVTISVDTSKNQFSLKLSSVTAADTAVYYCARGLGMYYHVPFDIWGQGTMVTVSS
VL: EIVLTQSPATLSLSPGERATLSCRASQSVSSYLAWYQQKPGQAPRLLIYDASNRATGIPARFSGSGSGTDFTLTISSLEPEDFAVYYCQQYFHWPPTFGGGTKVEIKR
notes: Human IgG
In experiment [7], B3 registered a Kd of 58 nM, a koff of 0.0661 s⁻¹ and a kon of 1.14e+06 M⁻¹ s⁻¹. In [8], the dissociation constant (Kd) amounted to 1.48 nM, the off-rate (koff) was determined as 0.000275 s⁻¹ and the on-rate (kon) came out at 186000 M⁻¹ s⁻¹. Further, the binding result in experiment [9] is listed as “no binding”. Moreover, in [10], the binding result is given as “no binding”.

B4: G01 (antibody, human IgG1, kappa, V domains shown)
VH: QLQLQESGPGLVKPSETLSLTCTVSGGSISSSSYAWGWIRQPPGKGLEWIGSIYYSGSTYYNPSLKSRVTISVDTSKNQFSLKLSSVTAADTAVYYCARAGKYRWHGMDVWGQGTTVTVSS
VL: DIQMTQSPSSVSASVGDRVTITCRASQGISSWLAWYQQKPGKAPKLLIYAASNLQSGVPSRFSGSGSGTDFTLTISSLQPEDFATYYCQQAPDLPITFGGGTKVEIKR
notes: Human IgG; also called G01 Parent; G01 (naïve parent)
Take B4: the binding result in [11] is on record as “no binding”. In experiment [12], this molecule displayed a Kd of 1.14 nM, a koff of 0.00022 s⁻¹ and a kon of 176000 M⁻¹ s⁻¹. For the same molecule, in [13], the affinity, expressed as Kd, was 16.8 nM; the off-rate (koff) was determined as 0.0152 s⁻¹; the kon was determined as 905000 M⁻¹ s⁻¹. The binding result in [14] was “no binding”.

B5: H01 (antibody, human IgG1, kappa, V domains shown)
VH: QVQLQESGPGLVKPSETLSLTCAVSGYSISSGVYWMWIRQPPGKGLEWIGSIVHSGHTYYNPSLKSRVTISVDTSKNQFSLKLSSVTAADTAVYYCARAGKYRWHGMDVWGQGTTVTVSS
VL: DIQMTQSPSSVSASVGDRVTITCRASQGISSWLAWYQQKPGKAPKLLIYAASNLQSGVPSRFSGSGSGTDFTLTISSLQPEDFATYYCQQAPDLPITFGGGTKVEIKR
notes: Human IgG
For the molecule B5, the binding result in experiment [15] is “no binding”. In experiment [16], the binding result is reported as “no binding”. In addition, in experiment [12], the Kd amounted to 0.353 nM, the dissociation rate constant (koff) was determined as 0.000127 s⁻¹ and the on-rate (kon) was determined as 358000 M⁻¹ s⁻¹. Further, in experiment [13], the Kd came to 11.8 nM, the koff came out at 0.023 s⁻¹ and the kon turned out to be 1.95e+06 M⁻¹ s⁻¹.

B6: I01 (antibody, human IgG4 S228P, kappa, V domains shown)
VH: EVQLLESGGGLVQPGGSLRLSCAASGFTFGSYGMTWVRQAPGKGLEWVSVISGSGGGTYYADSVKGRFTISRDNSKNTLYLQMNSLRAEDTAVYYCAKGPRIVGMDVWGQGTTVTVSS
VL: DIQMTQSPSSVSASVGDRVTITCRASQGISSWLAWYQQKPGKAPKLLIYAASSLQSGVPSRFSGSGSGTDFTLTISSLQPEDFATYYCQQVFSYPLTFGGGTKVEIKR
Regarding B6, the binding result in [17] was “binds”.

B7: F02 (antibody, human IgG1, kappa, V domains shown)
VH: EVQLLESGGGLVQPGGSLRLSCAASGFTFSRYAMSWVRQAPGKGLEWVSGISGSGGATYYADSVKGRFTISRDNSKNTLYLQMNSLRAEDTAVYYCAKDPLSLLLGYFDYWGQGALVTVSS
VL: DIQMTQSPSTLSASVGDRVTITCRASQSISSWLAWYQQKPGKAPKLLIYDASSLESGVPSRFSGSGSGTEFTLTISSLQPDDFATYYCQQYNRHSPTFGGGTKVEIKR
notes: Human IgG; also called F02 variant; F02 optimized antibody
On to B7, for which, in experiment [18], the binding result is reported as “no binding”. Also, the binding result in experiment [19] is listed as “no binding”. In addition, in experiment [20], the equilibrium dissociation constant (Kd) stood at 0.738 nM, the dissociation rate constant (koff) turned out to be 3.46e-05 s⁻¹ and the on-rate constant (kon) was 46900 M⁻¹ s⁻¹. In [21], the Kd was 2.63 nM, the koff is 0.000313 s⁻¹ and the kon worked out at 119000 M⁻¹ s⁻¹.
